The results in this text go back to patent US20230029835A1 (KEYMED BIOSCIENCES, published 2023).

The target in assay [1] is T1, Cynomolgus macaques TSLP recombinant protein (Cynomolgus macaques, UniProt Q969D9 29-159 (human entry), limits assumed, biotinylated in the blocking assays (sites not given)).
T1 construct: also called cyTSLP; biotinylated Cynomolgus macaques TSLP protein
T1 chain: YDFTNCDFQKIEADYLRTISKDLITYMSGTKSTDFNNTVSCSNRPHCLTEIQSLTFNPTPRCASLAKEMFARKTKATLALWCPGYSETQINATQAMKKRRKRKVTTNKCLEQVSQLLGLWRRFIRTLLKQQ
The experiment in a line: ELISA on coated cynomolgus TSLP.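 Note: Read-out was TMB colorimetric signal measured as absorbance at 450 nm after 10 min development at 37 °C.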 A general note: ELISA stands for enzyme-linked immunosorbent assay.

Assay [2] has as its target T2, human TSLP recombinant protein (human, UniProt Q969D9 29-159, biotinylated in the blocking and cell-binding assays (sites not given)).
T2 construct: also called biotinylated human TSLP protein
Nature of the assay: ELISA on coated human TSLP.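 Note: binding detected by TMB colour development for 10 min at 37 °C, then absorbance measured at 450 nm.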

B1: Ab6 (antibody, V domains shown)
VH: QVQLVQSGAEVKKPGSSVKVSCKASGYTFTDYWMHWVRQAPGQGLEWMGTIDNSDSDTSLNQKFQGRVTLTVDTSTSTAYMELSSLRSEDTAVYYCARSLDGYYDYWGQGTLVTVSS
VL: DIQMTQSPSSLSASVGDRVTITCRASENIYSYLAWYQQKPGKAPKLLIYNARTLPEGVPSRFSGSGSGTDFTLTISSLQPEDFATYYCQHHYTTPWTFGQGTKVEIK
notes: Humanized; also called h39G5VHv6/h39G5VKv1
The term EC50 denotes the concentration needed to bring the measured effect to its halfway point. Turning to B1, the binding result in assay [1] is recorded as “binds”. For the same molecule, in assay [2], the EC50 was 2.79 nM.

B2: Ab27 (antibody, V domains shown)
VH: QVQLVQSGAEVKKPGSSVKVSCKASGYTFTDYWMHWVRQAPGQGLEWMGTIDNSDSDTSLNQKFQGRVTITADTSTSTAYMELSSLRSEDTAVYYCARSLDGYYDYWGQGTLVTVSS
VL: DIQMTQSPSSLSASVGDRVTITCRTSENIYSYLAWYQQKPGKAPKLLIYFAKTLTDGVPSRFSGSGSGTDFTLTISSLQPEDFATYYCQHHYGTPWTFGQGTKVEIK
notes: Humanized; also called h39G5VHv11/h71G4VKv1
In the case of B2, the concentration giving a half-maximal response (EC50) in assay [1] is 4.22 nM; in assay [2] it was 1.08 nM.

B3: Ab9 (antibody, V domains shown)
VH: EVQLVQSGAEVKKPGESLKISCKASGYTFTDYWMHWVRQMPGKGLEWMGTIDNSDSDTSLNQSFQGHVTLSVDKSSTTAYLQWSSLKASDTAMYYCARSLDGYYDYWGQGTLVTVSS
VL: DIQMTQSPSSLSASVGDRVTITCRASENIYSYLAWYQQKPGKAPKLLIYNARTLPEGVPSRFSGSGSGTDFTLTISSLQPEDFATYYCQHHYTTPWTFGQGTKVEIK
notes: Humanized; also called h39G5VHv9/h39G5VKv1
In the case of B3, the EC50 worked out at 209 nM in assay [1] and 3.03 nM in assay [2].

B4: Ab15 (antibody, V domains shown)
VH: EVQLVQSGAEVKKPGESLKISCKASGYTFTDYWMHWVRQMPGKGLEWMGTIDNSDSDTSLNQSFQGHVTISADKSSTTAYLQWSSLKASDTAMYYCARSLDGYYDYWGQGTLVTVSS
VL: DIQMTQSPSSLSASVGDRVTITCRASENIYSYLAWYQQKPGKAPKLLIYNARTLPEGVPSRFSGSGSGTDFTLTISSLQPEDFATYYCQHHYTTPWTFGQGTKVEIK
notes: Humanized; also called h39G5VHv15/h39G5VKv1
As for B4, the binding result in assay [1] is reported as “no binding”. In addition, the EC50 in assay [2] is 62.9 nM.

B5: Ab11 (antibody, V domains shown)
VH: QVQLVQSGAEVKKPGSSVKVSCKASGYTFTDYWMHWVRQAPGQGLEWMGTIDNSDSDTSLNQKFQGRVTITADTSTSTAYMELSSLRSEDTAVYYCARSLDGYYDYWGQGTLVTVSS
VL: DIQMTQSPSSLSASVGDRVTITCRASENIYSYLAWYQQKPGKAPKLLIYNARTLPEGVPSRFSGSGSGTDFTLTISSLQPEDFATYYCQHHYTTPWTFGQGTKVEIK
notes: Humanized; also called h39G5VHv11/h39G5VKv1
As for B5, the binding result in assay [1] is “binds”. In addition, in assay [2], the EC50 amounted to 36 nM.

B6: Ab18 (antibody, V domains shown)
VH: QVQLVQSGAEVKKPGSSVKVSCKASGYTFTDYWMHWVRQAPGQGLEWMGTIDNSDSDTTYNQKFQGRVTMTRDTSTSTVYMELSSLRSEDTAVYYCARSVDGYLDYWGQGTLVTVSS
VL: DIQMTQSPSSLSASVGDRVTITCRASENIYSYLAWYQQKPGKAPKLLIYNARTLPEGVPSRFSGSGSGTDFTLTISSLQPEDFATYYCQHHYTTPWTFGQGTKVEIK
notes: Humanized; also called h71G4VHv3/h39G5VKv1
Turning to B6, the values for the EC50 in assay [1] and in assay [2] were 17.9 nM and 2.15 nM, respectively.

B7: Ab7 (antibody, V domains shown)
VH: QVQLVQSGAEVKKPGSSVKVSCKASGYTFTDYWMHWVRQAPGQGLEWMGTIDNSDSDTSLNQKFQGRVTLTVDESSSTAYMELSSLRSEDTAVYYCARSLDGYYDYWGQGTLVTVSS
VL: DIQMTQSPSSLSASVGDRVTITCRASENIYSYLAWYQQKPGKAPKLLIYNARTLPEGVPSRFSGSGSGTDFTLTISSLQPEDFATYYCQHHYTTPWTFGQGTKVEIK
notes: Humanized; also called h39G5VHv7/h39G5VKv1
For B7, the binding result in assay [1] is given as “binds”. For the same molecule, the EC50 in assay [2] was 1.89 nM.

B8: Ab17 (antibody, V domains shown)
VH: QVQLVQSGAEVKKPGSSVKVSCKASGYTFTDYWMHWVRQAPGQGLEWMGTIDNSDSDTTYNQKFQGRVTLTVDTSTSTAYMELSSLRSEDTAVYYCARSVDGYLDYWGQGTLVTVSS
VL: DIQMTQSPSSLSASVGDRVTITCRASENIYSYLAWYQQKPGKAPKLLIYNARTLPEGVPSRFSGSGSGTDFTLTISSLQPEDFATYYCQHHYTTPWTFGQGTKVEIK
notes: Humanized; also called h71G4VHv2/h39G5VKv1
B8: the half-maximal effective concentration (EC50) in assay [1] was found to be 4.44 nM; in assay [2] it was 1.98 nM.
